In the supplement of paper PMC11246515:
± gives the standard deviation of the averaged measurements.

Test: total protein half-life in vivo (active degradation + dilution); higher = more stable protein
[1] = E. coli NCM3722 delta-clpP delta-lon delta-hslV, growth: N-lim chemostat, doubling time 6 h
[2] = E. coli NCM3722 delta-clpP, growth: N-lim chemostat, doubling time 6 h
[3] = E. coli NCM3722 delta-hslV, growth: N-lim chemostat, doubling time 6 h
[4] = E. coli NCM3722 delta-lon, growth: N-lim chemostat, doubling time 6 h
[5] = E. coli NCM3722 delta-smpB, growth: N-lim chemostat, doubling time 6 h
[6] = wild type E. coli NCM3722, growth: C-lim chemostat, doubling time 3 h
[7] = wild type E. coli NCM3722, growth: C-lim chemostat, doubling time 6 h
[8] = wild type E. coli NCM3722, growth: C-lim chemostat, doubling time 12 h
[9] = wild type E. coli NCM3722, growth: N-lim chemostat, doubling time 6 h
[10] = wild type E. coli NCM3722, growth: N-lim chemostat, doubling time 12 h
[11] = wild type E. coli NCM3722, growth: P-lim chemostat, doubling time 6 h
[12] = wild type E. coli NCM3722, growth: P-lim chemostat, doubling time 12 h

Sequence | total protein half-life in vivo [1] | total protein half-life in vivo [2] | total protein half-life in vivo [3] | total protein half-life in vivo [4] | total protein half-life in vivo [5] | total protein half-life in vivo [6] | total protein half-life in vivo [7] | total protein half-life in vivo [8] | total protein half-life in vivo [9] | total protein half-life in vivo [10] | total protein half-life in vivo [11] | total protein half-life in vivo [12]
MSELLSFALFLASVLIYAWKAGRNTWWFAATLTVLGLFVVLNITLFASDYFTGDGINDAVLYTLTNSLTGAGVSKYILPGIGIVLGLTAVFGALGWILRRRRHHPHHFGYSLLALLLALGSVDASPAFRQITELVKSQSRDGDPDFAAYYKEPSKTIPDPKLNLVYIYGESLERTYFDNEAFPDLTPELGALKNEGLDFSHTQQLPGTDYTIAGMVASQCGIPLFAPFEGNASASVSSFFPQNICLGDILKNSGYQNYFVQGANLRFAGKDVFLKSHGFDHLYGSEELKSVVADPHYRNDWGFYDDTVLDEAWKKFEELSRSGQRFSLFTLTVDTHHPDGFISRTCNRKKYDFDGKPNQSFSAVSCSQENIATFINKIKASPWFKDTVIVVSSDHLAMNNTAWKYLNKQDRNNLFFVIRGDKPQQETLAVKRNTMDNGATVLDILGGDNYLGLGRSSLSGQSMSEIFLNIKEKTLAWKPDIIRLWKFPKEMKEFTIDQQKNMIAFSGSHFRLPLLLRVSDKRVEPLPESEYSAPLRFQLADFAPRDNFVWVDRCYKMAQLWAPELALSTDWCVSQGQLGGQQIVQHVDKTTWQGKTAFKDTVIDMARYKGNVDTLKIVDNDIRYKADSFIFNVAGAPEEVKQFSGISRPESWGRWSNAQLGDEVKIEYKHPLPKKFDLVITAKAYGNNASRPIPVRVGNEEQTLVLGNEVTTTTLHFDNPTDADTLVIVPPEPVSTNEGNILGHSPRKLGIGMVEIKVVEREG | 4.02 ± 0.17 h | 2.98 ± 0.2 h | 3.42 ± 0.56 h | 4.63 ± 0.46 h | 3.47 ± 0.035 h | 2.17 ± 0.05 h | 2.99 ± 0.12 h | 3.93 ± 0.84 h | 3.35 ± 0.42 h | 4.45 ± 0.4 h |  | 
MLHTLHRSPWLTDFAALLRLLSEGDELLLLQDGVTAAVDGNRYLESLRNAPIKVYALNEDLIARGLTGQISNDIILIDYTDFVRLTVKHPSQMAW | 5.27 ± 0.29 h | 5.7 h | 4.53 ± 0.13 h | 6.44 ± 1.6 h | 4.89 ± 0.16 h | 3.012 ± 0.0044 h | 5.1 h | 13.4 ± 3 h | 4.39 ± 0.46 h | 8.26 h | 5.89 h | 11.3 ± 0.18 h
MGSTSSLYAAIDLGSNSFHMLVVREVAGSIQTLTRIKRKVRLAAGLNSENALSNEAMERGWQCLRLFAERLQDIPPSQIRVVATATLRLAVNAGDFIAKAQEILGCPVQVISGEEEARLIYQGVAHTTGGADQRLVVDIGGASTELVTGTGAQTTSLFSLSMGCVTWLERYFADRNLGQENFDAAEKAAREVLRPVADELRYHGWKVCVGASGTVQALQEIMMAQGMDERITLEKLQQLKQRAIHCGRLEELEIDGLTLERALVFPSGLAILIAIFTELNIQCMTLAGGALREGLVYGMLHLAVEQDIRSRTLRNIQRRFMIDIDQAQRVAKVAANFFDQVENEWHLEAISRDLLISACQLHEIGLSVDFKQAPQHAAYLVRNLDLPGFTPAQKKLLATLLLNQTNPVDLSSLHQQNAVPPRVAEQLCRLLRLAIIFASRRRDDLVPEMTLQANHELLTLTLPQGWLTQHPLGKEIIAQESQWQSYVHWPLEVH | 4.11 ± 0.81 h | 3.91 ± 0.1 h | 3.77 ± 0.53 h | 3.75 ± 0.87 h | 3.64 ± 0.35 h | 2.92 ± 0.24 h | 5.11 ± 0.2 h | 9.31 ± 0.75 h | 3.94 ± 0.33 h | 5.6 ± 0.23 h | 5.28 ± 1 h | 11.3 ± 0.41 h
MKHLTEMVRQHKAGKTNGIYAVCSAHPLVLEAAIRYASANQTPLLIEATSNQVDQFGGYTGMTPADFRGFVCQLADSLNFPQDALILGGDHLGPNRWQNLPAAQAMANADDLIKSYVAAGFKKIHLDCSMSCQDDPIPLTDDIVAERAARLAKVAEETCLEHFGEADLEYVIGTEVPVPGGAHETLSELAVTTPDAARATLEAHRHAFEKQGLNAIWPRIIALVVQPGVEFDHTNVIDYQPAKASALSQMVENYETLIFEAHSTDYQTPQSLRQLVIDHFAILKVGPALTFALREALFSLAAIEEELVPAKACSGLRQVLEDVMLDRPEYWQSHYHGDGNARRLARGYSYSDRVRYYWPDSQIDDAFAHLVRNLADSPIPLPLISQYLPLQYVKVRSGELQPTPRELIINHIQDILAQYHTACEGQ [P0C8K0] |  |  |  |  |  | 2.63 ± 0.042 h | 3.29 h | 5 ± 1.3 h |  |  |  | 
MQYIKIHALDNVAVALADLAEGTEVSVDNQTVTLRQDVARGHKFALTDIAKGANVIKYGLPIGYALADIAAGVHVHAHNTRTNLSDLDQYRYQPDFQDLPAQAADREVQIYRRANGDVGVRNELWILPTVGCVNGIARQIQNRFLKETNNAEGTDGVFLFSHTYGCSQLGDDHINTRTMLQNMVRHPNAGAVLVIGLGCENNQVAAFRETLGDIDPERVHFMICQQQDDEIEAGIEHLHQLYNVMRNDKREPGKLSELKFGLECGGSDGLSGITANPMLGRFSDYVIANGGTTVLTEVPEMFGAEQLLMDHCRDEATFEKLVTMVNDFKQYFIAHDQPIYENPSPGNKAGGITTLEDKSLGCTQKAGSSVVVDVLRYGERLKTPGLNLLSAPGNDAVATSALAGAGCHMVLFSTGRGTPYGGFVPTVKIATNSELAAKKKHWIDFDAGQLIHGKAMPQLLEEFIDTIVEFANGKQTCNERNDFRELAIFKSGVTL | 4.17 ± 0.22 h | 3.03 ± 0.15 h | 2.65 ± 0.042 h | 3.4 h | 2.51 ± 0.36 h | 2.61 ± 0.27 h | 3.9 ± 0.23 h | 4.43 ± 0.69 h | 2.63 ± 0.13 h | 3.74 ± 0.76 h | 3.94 ± 1.4 h | 6.84 ± 1.4 h
